Measurements taken from article PMC7700423, “Differential Effects of 1α,25-Dihydroxyvitamin D3 on the Expressions and Functions of Hepatic CYP and UGT Enzymes and Its Pharmacokinetic Consequences In Vivo” (Pharmaceutics, 2020).

Experiments:
[1] = substrate: CC(NC(C)(C)C)C(=O)c1cccc(Cl)c1
[2] = substrate: CCCCNC(=O)NS(=O)(=O)c1ccc(C)cc1

| Protein | Km [1] [µM] | Vmax [1] [pmol/min/mg protein] | Km [2] [µM] | Vmax [2] [pmol/min/mg protein] |
| --- | --- | --- | --- | --- |
| Cyp2b1 (Rattus norvegicus) (protein) MEPTILLLLALLVGFLLLLVRGHPKSRGNFPPGPRPLPLLGNLLQLDRGGLLNSFMQLREKYGDVFTVHLGPRPVVMLCGTDTIKEALVGQAEDFSGRGTIAVIEPIFKEYGVIFANGERWKALRRFSLATMRDFGMGKRSVEERIQEEAQCLVEELRKSQGAPLDPTFLFQCITANIICSIVFGERFDYTDRQFLRLLELFYRTFSLLSSFSSQVFEFFSGFLKYFPGAHRQISKNLQEILDYIGHIVEKHRATLDPSAPRDFIDTYLLRMEKEKSNHHTEFHHENLMISLLSLFFAGTETSSTTLRYGFLLMLKYPHVAEKVQKEIDQVIGSHRLPTLDDRSKMPYTDAVIHEIQRFSDLVPIGVPHRVTKDTMFRGYLLPKNTEVYPILSSALHDPQYFDHPDSFNPEHFLDANGALKKSEAFMPFSTGKRICLGEGIARNELFLFFTTILQNFSVSSHLAPKDIDLTPKESGIGKIPPTYQICFSAR | 171.70 ± 39.46 | 35.20 ± 6.62 | – | – |
| Cyp2c11 (Rattus norvegicus) (protein) MDPVLVLVLTLSSLLLLSLWRQSFGRGKLPPGPTPLPIIGNTLQIYMKDIGQSIKKFSKVYGPIFTLYLGMKPFVVLHGYEAVKEALVDLGEEFSGRGSFPVSERVNKGLGVIFSNGMQWKEIRRFSIMTLRTFGMGKRTIEDRIQEEAQCLVEELRKSKGAPFDPTFILGCAPCNVICSIIFQNRFDYKDPTFLNLMHRFNENFRLFSSPWLQVCNTFPAIIDYFPGSHNQVLKNFFYIKNYVLEKVKEHQESLDKDNPRDFIDCFLNKMEQEKHNPQSEFTLESLVATVTDMFGAGTETTSTTLRYGLLLLLKHVDVTAKVQEEIERVIGRNRSPCMKDRSQMPYTDAVVHEIQRYIDLVPTNLPHLVTRDIKFRNYFIPKGTNVIVSLSSILHDDKEFPNPEKFDPGHFLDERGNFKKSDYFMPFSAGKRICAGEALARTELFLFFTTILQNFNLKSLVDVKDIDTTPAISGFGHLPPFYEACFIPVQRADSLSSHL | – | – | 232.83 ± 51.33 | 683.37 ± 94.05 |
